Laboratory results: paper PMC10397247
Values belong to the binder of their own block, whether it stands above or below them.

What was measured:
Test in all cases: two-hybrid library CCNG1;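 note: natural log of median RNA to DNA barcode read ratio; higher means stronger binding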
[1] = biological target: T1, 4H3185-bA
T1 chain: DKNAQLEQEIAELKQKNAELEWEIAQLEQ

[2] = biological target: T2, 4H331-bA
T2 chain: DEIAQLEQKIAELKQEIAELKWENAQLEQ

[3] = biological target: T3, 4H3354-bA
T3 chain: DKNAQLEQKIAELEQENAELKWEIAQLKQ

[4] = biological target: T4, 4H338-bA
T4 chain: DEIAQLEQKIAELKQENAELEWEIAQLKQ

[5] = biological target: T5, 4H3427-bA
T5 chain: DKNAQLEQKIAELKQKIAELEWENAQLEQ

[6] = biological target: T6, 4H3782-bA
T6 chain: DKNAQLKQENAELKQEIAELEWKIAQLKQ

[7] = biological target: T7, 4H3843-bA
T7 chain: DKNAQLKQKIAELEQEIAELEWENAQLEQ

[8] = biological target: T8, 4H3855-bA
T8 chain: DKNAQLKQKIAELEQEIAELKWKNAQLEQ

[9] = biological target: T9, 4H4001-bA
T9 chain: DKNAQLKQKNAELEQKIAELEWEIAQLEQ

[10] = biological target: T10, 4H454-bA
T10 chain: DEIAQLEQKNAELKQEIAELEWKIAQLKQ

[11] = biological target: T11, 4H568-bA
T11 chain: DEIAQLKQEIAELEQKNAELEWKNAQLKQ

[12] = biological target: T12, 4H607-bA
T12 chain: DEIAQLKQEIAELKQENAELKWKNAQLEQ

[13] = biological target: T13, 4H687-bA
T13 chain: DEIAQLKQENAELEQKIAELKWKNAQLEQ

[14] = biological target: T14, 4H717-bA
T14 chain: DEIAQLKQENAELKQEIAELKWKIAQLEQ

[15] = biological target: T15, 4H72-bA
T15 chain: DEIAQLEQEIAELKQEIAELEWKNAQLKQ

[16] = biological target: T16, 4H754-bA
T16 chain: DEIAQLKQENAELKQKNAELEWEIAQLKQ

[17] = biological target: T17, 4H797-bA
T17 chain: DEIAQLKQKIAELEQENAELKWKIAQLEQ

[18] = biological target: T18, 4H883-bA
T18 chain: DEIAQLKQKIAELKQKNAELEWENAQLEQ

[19] = biological target: T19, 4H908-bA
T19 chain: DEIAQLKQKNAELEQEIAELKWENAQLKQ

[20] = biological target: T20, 4H918-bA
T20 chain: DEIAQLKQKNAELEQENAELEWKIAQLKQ

[21] = biological target: T21, 4H953-bA
T21 chain: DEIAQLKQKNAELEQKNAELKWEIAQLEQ

[22] = biological target: T22, 4H967-bA
T22 chain: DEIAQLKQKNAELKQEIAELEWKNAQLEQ

[23] = biological target: T23, P3A-bA
T23 chain: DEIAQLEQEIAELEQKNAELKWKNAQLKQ

[24] = biological target: T24, P4A-bA
T24 chain: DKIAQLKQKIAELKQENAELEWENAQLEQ

[25] = biological target: T25, P5A-bA
T25 chain: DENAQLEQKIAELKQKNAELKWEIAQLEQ

[26] = biological target: T26, P6A-bA
T26 chain: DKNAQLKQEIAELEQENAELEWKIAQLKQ

[27] = biological target: T27, P7A-bA
T27 chain: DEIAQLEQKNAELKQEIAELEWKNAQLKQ

[28] = biological target: T28, P8A-bA
T28 chain: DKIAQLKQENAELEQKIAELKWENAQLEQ

[29] = biological target: T29, P9A-bA
T29 chain: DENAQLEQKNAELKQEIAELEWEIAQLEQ

interaction score [1]: -0.903 | interaction score [2]: -1.49 | interaction score [3]: -1.03 | interaction score [4]: -1.39 | interaction score [5]: -0.483 | interaction score [6]: -1.06 | interaction score [7]: -0.572 | interaction score [8]: -0.974 | interaction score [9]: -0.835 | interaction score [10]: -1.66 | interaction score [11]: -1.72 | interaction score [12]: -1.07 | interaction score [13]: -0.744 | interaction score [14]: -1.46 | interaction score [15]: -1.82 | interaction score [16]: -0.86 | interaction score [17]: -1.99 | interaction score [18]: -1.49 | interaction score [19]: -1.86 | interaction score [20]: -1.76 | interaction score [21]: -1.76 | interaction score [22]: -0.96 | interaction score [23]: -0.564
B1: 4H3185-bA (peptide)
chain: DKNAQLEQEIAELKQKNAELEWEIAQLEQ

interaction score [23]: -1.12 | interaction score [24]: -1.08 | interaction score [25]: -1.1 | interaction score [26]: -1.21 | interaction score [27]: -0.804 | interaction score [28]: -0.805 | interaction score [29]: -1.21
B2: P1A-bA (peptide)
chain: DEIAQLEQENAELEQENAELEWEIAQLEQ

interaction score [23]: -1.07 | interaction score [24]: 2.18 | interaction score [25]: -0.684 | interaction score [26]: 1.19 | interaction score [27]: -1.05 | interaction score [28]: 0.146 | interaction score [29]: 0.237
B3: P3A-bA (peptide)
chain: DEIAQLEQEIAELEQKNAELKWKNAQLKQ
